Substitutions are numbered along the chain they refer to.
B1: anti-ZIKV antibody 306-2 (antibody, V domains shown)
VH: QSLEESGGDLVKPGASLTLTCTASGFDFSDRYYMCWVRQAPGKGLEWIGCIYVGSGDTYYASWAKGRFTISRTSSTTVTLQMTRLTAADTATYFCARHPGTYFTLWGPGTLVTVSS
VL: DVVMTQTPSSVSAAVGGTVTINCQASQNIVNNLAWYQQRPGQPPKLLIYDTSTLASGVPSRFKGSGSGTEFTLTISDLECADAATYYCQTYYYYNKIINGFGGGTEVVVKG
B2: anti-ZIKV antibody 242-3 (antibody, V domains shown)
VH: QAQLEESGGDLVKPEGSLTLTCTASGFSFTDRHYMCWIRQAPGKGLEWIACVYPGSSGSTYYASWARGRFTISKTSSTTVTLRMTSLTAADTATYFCARSSYPDSSGYSYGMDLWGPGTLVTVSS
VL: DIVMTQTPASVEAAVGGTVTIKCQASQNINSNLAWYQQKPGQRPKFLMYLTSKLASGVPSRFRGSGSGTQFTLTISDLECADAATYYCQTYYDISNYGYAFGGGTEVVVK
notes: also called clone 242-3
B3: anti-ZIKV antibody 270-12 (antibody, V domains shown)
VH: B2 VH with I38V
VL: DIVMTQTPASVEAAVGGTVTIKCQASQDINSNLAWYQQKPGQRPKFLMYLTSKLASGVPSRFRGSGSGTQFTLTISDLECADAATYYCQTYYDISNYGYAFGGGTEVVVKG
notes: also called clone 270-12
B4: anti-ZIKV antibody 78-2 (antibody, V domains shown)
VH: QQQLVESGGGLVKPGASLTLNCKASGLDFSTNSYMCWVRQAPGKGLEWIACIYVGDSSEIYYASWAKGRFTISKTSSTTVTLQMTSLTAADTATYFCARDLPSFTAPYAGYLRLWGPGTLVTVSS
VL: QPVLTQPPSLSASLGTTARLTCTLRTGYNVGDYPLLWLQRVPGRPPRYLLTYHTEEFKHQGSGVHSRFSGSKDASENAGVLSISGLQPEDEANYYCYTVHATESSLHYVFGGGTQLTVTG
notes: also called clone 78-2
B5: anti-ZIKV antibody 11-3 (antibody, V domains shown)
VH: QEQLVESGGGLVQPEGSLTITCTGSGFSFSSRFYMCWVRQAPGKGLEWIACIYGGSSGSTYYASWAKGRFTISKTSSTTVTLQISSLTAADTATYFCARGGSTAAAGFNLWGPGTLLTVSS
VL: DVVMTQTPASVSATVGGTVTIKCQASEDIYNLLAWYQQKPGQPPKLLIYYASTLASGVPSRFKGSGSGTEFTLTISDLECADAATYYCQCNDYGGTYVPNAFGGGTEVVVKG
notes: also called clone 11-3

These binders were tested against T1, ZIKV-VLP (Native Antigen Inc.) (Zika virus) (assay: BLI binning on ZIKV-VLP; 1st mAb: Ab2).
T1 construct: also called Zika VLP; ZVLP

Binder	response of 2nd mAb
B1	4.51
B2	7.67
B3	3.5
B4	2.46
B5	2.71

What follows are binders tested against T1, ZIKV-VLP (Native Antigen Inc.) (assay: BLI binning on ZIKV-VLP; 1st mAb (row): 289-3).

Binder	response of 2nd mAb
B1	0.023
B2	0.0219
B3	0.0261

These binders were tested against T1, ZIKV-VLP (Native Antigen Inc.) (assay: BLI binning on ZIKV-VLP; 1st mAb (row): 306-2).

Binder	response of 2nd mAb
B1	0.0225
B2	0.0732
B3	0.0432

The binders below were run against T1, ZIKV-VLP (Native Antigen Inc.) (assay: BLI binning on ZIKV-VLP; 1st mAb (row): 270-12).

Binder	response of 2nd mAb
B1	0.0125
B2	0.0325
B3	0.0171

These binders were tested against T1, ZIKV-VLP (Native Antigen Inc.) (assay: BLI binning on ZIKV-VLP; 1st mAb: 102-1).

Binder	response of 2nd mAb
B1	0.07
B2	0.1
B3	0.07
B4	0.32
B5	0.45

These binders were tested against T1, ZIKV-VLP (Native Antigen Inc.) (assay: BLI (Octet), supernatant IgG captured on Protein A biosensor, ZIKV-VLP 3.3 µg/mL in solution, 1:1 model).

Binder	koff [s⁻¹]
B1	< 1e-07
B2	< 1e-07
B4	< 1e-07
B5	< 1e-07

Each binder was assayed against T1, ZIKV-VLP (Native Antigen Inc.) (assay: BLI binning on ZIKV-VLP; 1st mAb (row): C10).

Binder	response of 2nd mAb
B1	-0.0006
B2	0.0363
B3	0.0344

Each binder was assayed against T1, ZIKV-VLP (Native Antigen Inc.) (assay: BLI binning on ZIKV-VLP; 1st mAb: 11-3).

Binder	response of 2nd mAb
B1	0.34
B2	0.4
B3	0.47
B4	0.42
B5	0.06

What follows are binders tested against T1, ZIKV-VLP (Native Antigen Inc.) (assay: BLI binning on ZIKV-VLP; 1st mAb: 260-2).

Binder	response of 2nd mAb
B1	0
B2	0.06
B3	0
B4	0.33
B5	0.47

Each binder was assayed against T1, ZIKV-VLP (Native Antigen Inc.) (assay: BLI binning on ZIKV-VLP; 1st mAb: 306-2).

Binder	response of 2nd mAb
B1	0.01
B2	0.08
B3	0.31
B4	0.28
B5	0.43

Each binder was assayed against T1, ZIKV-VLP (Native Antigen Inc.) (assay: BLI binning on ZIKV-VLP; 1st mAb: C10).

Binder	response of 2nd mAb
B1	4.54
B2	5.12
B3	4.27
B4	3.41
B5	3.14

These binders were tested against T1, ZIKV-VLP (Native Antigen Inc.) (assay: BLI binning on ZIKV-VLP; 1st mAb: 242-3).

Binder	response of 2nd mAb
B1	0.04
B2	0.08
B3	0.04
B4	0.33
B5	0.42

What follows are binders tested against T1, ZIKV-VLP (Native Antigen Inc.) (assay: BLI binning on ZIKV-VLP; 1st mAb: 78-2).

Binder	response of 2nd mAb
B1	0.26
B2	0.18
B3	0.44
B4	0.06
B5	0.23

What follows are binders tested against T1, ZIKV-VLP (Native Antigen Inc.) (assay: BLI binning on ZIKV-VLP; 1st mAb: 181-4).

Binder	response of 2nd mAb
B1	-0.02
B2	0.02
B3	0.01
B4	0.3
B5	0.39

These binders were tested against T1, ZIKV-VLP (Native Antigen Inc.) (assay: ELISA, hybridoma supernatant (Abcam data)).

Binder	OD [OD]
B1	1.15
B2	0.97
B3	1.27
B4	2.67
B5	2.83

Each binder was assayed against T1, ZIKV-VLP (Native Antigen Inc.) (assay: BLI binning on ZIKV-VLP; 1st mAb: 289-3).

Binder	response of 2nd mAb
B1	0.03
B2	0.04
B3	0.02
B4	0.32
B5	0.42

Each binder was assayed against T1, ZIKV-VLP (Native Antigen Inc.) (assay: BLI binning on ZIKV-VLP; 1st mAb: 270-12).

Binder	response of 2nd mAb
B1	-0.01
B2	0.04
B3	0.02
B4	0.28
B5	0.38

Each binder was assayed against T1, ZIKV-VLP (Native Antigen Inc.) (assay: indirect ELISA, purified antibody serially diluted from 10 µg/ml).

Binder	EC50 [mg/L]
B3	0.0128
B4	0.0319
B5	0.00657

Each binder was assayed against T1, ZIKV-VLP (Native Antigen Inc.) (assay: indirect ELISA, subclone supernatant).

Binder	VLP (OD) binding [OD]
B1	1.15
B2	0.97

The binders below were run against T1, ZIKV-VLP (Native Antigen Inc.) (assay: BLI binning on ZIKV-VLP; 1st mAb: Ab1).

Binder	response of 2nd mAb
B1	0.19
B2	0.25
B3	0.34
B4	0.38
B5	0.41

These binders were tested against T1, ZIKV-VLP (Native Antigen Inc.) (assay: BLI binning on ZIKV-VLP; 1st mAb (row): 102-1).

Binder	response of 2nd mAb
B1	0.0269
B2	0.0181
B3	-0.004

Each binder was assayed against T1, ZIKV-VLP (Native Antigen Inc.) (assay: ELISA, purified recombinant mAb).

Binder	ELISA OD [OD]
B1	3.3
B2	3.07

These binders were tested against T1, ZIKV-VLP (Native Antigen Inc.) (assay: BLI binning on ZIKV-VLP; 1st mAb: 329-2).

Binder	response of 2nd mAb
B1	-0.03
B2	-0.01
B3	0
B4	0.33
B5	0.44

These binders were tested against T1, ZIKV-VLP (Native Antigen Inc.) (assay: BLI binning on ZIKV-VLP; 1st mAb: 4G2).

Binder	response of 2nd mAb
B1	0.64
B2	0.93
B3	0.91
B4	0.52
B5	0.75

The binders below were run against T1, ZIKV-VLP (Native Antigen Inc.) (assay: BLI binning on ZIKV-VLP; 1st mAb (row): 242-3).

Binder	response of 2nd mAb
B1	0.019
B2	0.005
B3	-0.0103
